T1: ASK1(1-160) (Arabidopsis thaliana, UniProt Q39255)
T1 construct: constructing the plasmid pGAD424-ASK1(1-160)[3] expressing fusion protein of ASK1 and GAL4-4AD; expressed in transfected cells; host or cells: Saccharomyces cerevisiae HF7c
T1 sequence (Q39255 1-160): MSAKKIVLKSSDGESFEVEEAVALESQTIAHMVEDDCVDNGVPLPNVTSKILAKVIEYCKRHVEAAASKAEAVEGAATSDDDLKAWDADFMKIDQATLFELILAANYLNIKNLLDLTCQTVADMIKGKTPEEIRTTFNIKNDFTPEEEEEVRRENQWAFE

T2: GST-ASK1 fusion protein (Arabidopsis thaliana, UniProt Q39255)
T2 construct: made in house; host or cells: Escherichia coli BL21(DE3) pLysS
T2 sequence (Q39255 1-160): T1 sequence (Q39255 1-160)

B1: ORE9 (50-693): fragment of ORE9 containing 50-693th amino acids from which the F-box region was removed (protein)
chain: MKLLSSIEQACDICRLKKLKCSKEKPKCAKCLKNNWECRYSPKTKRSPLTRAHLTEVESRLERLEQLFLLIFPREDLDMILKMDSLQDIKALLTGLFVQDNVNKDAVTDRLASVETDMPLTLRQHRISATSSSEESSNKGQRQLTVSIRGNARDLSLVPDCFRSISHLDLSFLSPWGHTLLASLPIDHQNLLALRLKFCFPFVESLNVYTRSPSSLELLLPQWPRIRHIKLLRWHQRASQIPTGGDFVPIFEHCGGFLESLDLSNFYHWTEDLPPVLLRYADVAARLTRLDLLTASFTEGYKSSEIVSITKSCPNLKTFRVACTFDPRYFEFVGDETLSAVATSSPKLTLLHMVDTASLANPRAIPGTEAGDSAVTAGTLIEVFSGLPNLEELVLDVGKDVKHSGVALEALNSKCKKLRVLKLGQFQGVCSATEWRRLDGVALCGGLQSLSIKNSGDLTDMGLVAIGRGCCKLTTFEIQGCENVTVDGLRTMVSLRSKTLTDVRISCCKNLDTAASLKAIEPICDRIKRLHIDCVWSGSEDEEVEGRVETSEADHEEEDDGYERSQKRCKYSFEEEHCSTSDVNGFCSEDRVWEKLEYLSLWINVGEFLTPLPMTGLDDCPNLEEIRIKIEGDCRGKRRPAEPEFGLSCLALYPKLSKMQLDCGDTIGFALTAPPMQMDLSLWERFFLTGIGSLSLSELDYWPPQDRDVNQRSLSLPGAGLLQECLTLRKLFIHGTAHEHFMNFLLRIPNLRDVQLRADYYPAPENDMSTEMRVGSCSRFEDQLNSRNIID
B2: ORE9 (1-693): complete ORE9 protein, 693 amino acids, F-box motif and 18 LRRs, SEQ ID NO: 2 (protein, listed as Arabidopsis thaliana)
chain: MASTTLSDLPDVILSTISSLVSDSRARNSLSLVSHKFLALERSTRSHLTIRGNARDLSLVPDCFRSISHLDLSFLSPWGHTLLASLPIDHQNLLALRLKFCFPFVESLNVYTRSPSSLELLLPQWPRIRHIKLLRWHQRASQIPTGGDFVPIFEHCGGFLESLDLSNFYHWTEDLPPVLLRYADVAARLTRLDLLTASFTEGYKSSEIVSITKSCPNLKTFRVACTFDPRYFEFVGDETLSAVATSSPKLTLLHMVDTASLANPRAIPGTEAGDSAVTAGTLIEVFSGLPNLEELVLDVGKDVKHSGVALEALNSKCKKLRVLKLGQFQGVCSATEWRRLDGVALCGGLQSLSIKNSGDLTDMGLVAIGRGCCKLTTFEIQGCENVTVDGLRTMVSLRSKTLTDVRISCCKNLDTAASLKAIEPICDRIKRLHIDCVWSGSEDEEVEGRVETSEADHEEEDDGYERSQKRCKYSFEEEHCSTSDVNGFCSEDRVWEKLEYLSLWINVGEFLTPLPMTGLDDCPNLEEIRIKIEGDCRGKRRPAEPEFGLSCLALYPKLSKMQLDCGDTIGFALTAPPMQMDLSLWERFFLTGIGSLSLSELDYWPPQDRDVNQRSLSLPGAGLLQECLTLRKLFIHGTAHEHFMNFLLRIPNLRDVQLRADYYPAPENDMSTEMRVGSCSRFEDQLNSRNIID
B3: ORE9(1-49): fragment of ORE9 containing N-terminal 1-49th amino acids corresponding to the F-box region (protein)
chain: MKLLSSIEQACDICRLKKLKCSKEKPKCAKCLKNNWECRYSPKTKRSPLTRAHLTEVESRLERLEQLFLLIFPREDLDMILKMDSLQDIKALLTGLFVQDNVNKDAVTDRLASVETDMPLTLRQHRISATSSSEESSNKGQRQLTVSMASTTLSDLPDVILSTISSLVSDSRARNSLSLVSHKFLALERSTRSHLT
B4: ORE9 (1-327): part of ORE9 (1-327) containing the F-box region (protein, UniProt Q9SIM9 1-327, looked up, fragment)
chain: MASTTLSDLPDVILSTISSLVSDSRARNSLSLVSHKFLALERSTRSHLTIRGNARDLSLVPDCFRSISHLDLSFLSPWGHTLLASLPIDHQNLLALRLKFCFPFVESLNVYTRSPSSLELLLPQWPRIRHIKLLRWHQRASQIPTGGDFVPIFEHCGGFLESLDLSNFYHWTEDLPPVLLRYADVAARLTRLDLLTASFTEGYKSSEIVSITKSCPNLKTFRVACTFDPRYFEFVGDETLSAVATSSPKLTLLHMVDTASLANPRAIPGTEAGDSAVTAGTLIEVFSGLPNLEELVLDVGKDVKHSGVALEALNSKCKKLRVLKLGQ

Assays:
[1] = target: T1, ASK1(1-160); assay: Yeast two-hybrid assay with ASK1; format: cell-based; details: HF7c yeast; for binding with ASK1 in yeast two-hybrid assay: GAL4-BD fusion
Description: As expression vectors of expressing GAL4 DNA binding domain (GAL4-BD) and ORE9 fusion protein, plasmids pGBT9-ORE9 (1-49) and pGBT9-ORE9 (50-693) were constructed. The plasmid pGBT9-ORE9 expresses a fragment of ORE9 containing N-terminal 1-49th amino acids corresponding to an F-box region of ORE9, and the plasmid pGBT9-ORE9 (50-693) expresses a fragment of ORE9 containing 50-693th amino acids from which the F-box region was removed.
First, the gene encoding the ORE9 (1-49) fragment was amplified by PCR using a primer represented by SEQ ID NO: 10 and SEQ ID NO: 11, and then inserted into BamHI and PstI restriction enzyme sites of pGBT9 (Clontech, USA) containing a 4-BD gene and a tryptophan auxotrophic selection marker gene (TRP1), thereby constructing the plasmid pGBT9-ORE9 (1-49). Similarly, the plasmid pGBT 9-ORE9 (50-693) was constructed, which expresses an ORE9 (50-693) fragment and a GAL4-BD fusion protein. In this case, oligonucletides represented by SEQ ID NO: 12 and SEQ ID NO: 13 were used as PCR primers to amplify the gene encoding the ORE9 (50-693) fragment.
Meanwhile, regarding ASK1(1-160) and ASK2(1-172) proteins used for identification of binding, pGAD424-ASK1(1-160) and pGAD424-ASK2(1-172) were constructed in such a manner that ASK1(1-160) and ASK2(1-172) are expressed in the form of a fusion protein with a […]. pGTE-ASK1(1-160) containing an ASK1(1-160) gene was digested with BamHI and PstI, and then inserted into pGAD424 (Clontech, USA) containing a GAL4-AD gene and a leucine auxotrophic selection marker gene (LEU2), thereby constructing the plasmid pGAD424-ASK1(1-160)[3] expressing fusion protein of ASK1 and GAL4-4AD. Similarly, the plasmid pGAD424-ASK2(1-172)[4] was constructed by inserting a BamHI/PstI fragment of pGTE-ASK2(1-172) into pGAD424.
Yeast strains, HF7c, were cultured in an YPD (yeast extract, peptone, dextrose) medium or a synthetic minimal medium (SD) containing 2% dextrose.
The HF7c yeast strains grown in the medium were transformed with different combinations of the vectors constructed in the above Example 6-1) ([1+3], [2+3] and [1+4]; see the left upper portion of FIG. 7b), respectively, by the lithium acetate method (Feilotter et al., 1994). The transformants were selected in a synthetic minimal medium containing 2% dextrose. The transformants were cultured in a SD medium from which tryptophan and leucine were removed (see the right upper portion of FIG. 7b), and in a SD medium from which tryptophan, leucine and histidine were removed and which contains 2 mM 3-amino-1,2,4-triazole (3-AT) (see the left lower portion of FIG. 7b).
The transformants were grown in a synthesis minimal medium, and the grown yeast colonies were examined for β-galactosidase activities on a filter paper. […]

[2] = target: T2, GST-ASK1 fusion protein; assay: In vitro binding assay with GST-ASK1 fusion protein; details: 35S-labeled in vitro translation product; glutathione beads; GST as negative control
Description: In order to examine that ORE9 protein or derivatives thereof directly bind with ASK1, a GST-ASK1 fusion protein and a ^35S-labeled ORE9 protein produced by in vitro translation were subjected to in vitro binding assay. To obtain a glutathione S-transferase (GST) protein and a GST-ASK1 fusion protein, a vector pGEX (APBiotech, Co.) and a vector pGEX-ASK1 were constructed, which express the above proteins, respectively. Artificial sequences represented by SEQ ID NO: 14 and SEQ ID NO: 15 were used as PCR primers to amplify a gene encoding the ASK1 fragment. The resulting PCR product was digested with EcoRI and NcoI restriction enzymes, and inserted into the restriction enzyme sites of the pGEX vector. Escherichia coli BL21(DE3) pLysS was transformed with the resulting two vectors, and GST and GST-ASK1 fusion proteins were expressed. The GST and GST-ASK1 fusion proteins were purified by chromatography with glutathione-Sepharose 4B beads. The purified proteins was subjected to electrophoresis with SDS-polyacryamide gets, dyed with Coomassie blue, and measured for their amount. GST and GST-ASK1 fusion proteins of the same amount were added to glutathione beads, which had been previously washed with 10-fold volume of B buffer (20 mM […], pH 7.6, 150 mM sodium chloride, 10% glycerol, 0.5% NP-40, 1 mM DTT) three times. Then, the resulting proteins were adsorbed 4° C. for one hour using a rotating mixer. The provided beads were washed with 1 ml B buffer three times, and then stored in a state where the ratio of slurries relative to B buffer is 50%.
Meanwhile, a radioactivity-labeled ORE9 (1-693), the mutant type ore9 and ORE9 derivatives (1-327 and 50-693) were prepared using the in vitro transcription/translation system (Promega, USA) and [^35S]-methionine (DuPont NEN, USA). The proteins were quantitatively analyzed with SDS-PAGE and BAS radioanalytic imaging system (Japan). Then, the respective ^35S-labeled translation products of the same amount were mixed with 60 μl GST-adsorbed beads or GST-ASK1 fusion protein-absorbed beads, contained in 1 ml GB buffer (final concentration: 20 mM Tris-HCl, pH 7.5, 0.15% NP-40, 150 mM NaCl, 1 mM EDTA). The resulting beads were cultured in a rotating mixer at 4° C. for two hours, and then washed with 1 ml GB buffer four times. The washed beads were added with 30 μl of 2×SDS sample solutions, boiled for three minutes and then isolated with SDS-PAGE. The resulting gels were dried to dryness, and then exposed to X-ray film.

| Molecule | binding with ASK1 in yeast two-hybrid assay [1] | binding (co-precipitation) with GST-ASK1 [2] | growth of transformed yeast in histidine deficient medium ([1]; GAL4-BD fusion with GAL4-AD-ASK1(1-160), SD medium without tryptophan, leucine, histidine, 2 mM 3-AT) | β-galactosidase activity of transformed yeast ([1]; with ASK1(1-160) plasmid, X-gal filter assay) |
| --- | --- | --- | --- | --- |
| B1 | fails to bind with ASK1 | fails to bind with GST-ASK1 |  |  |
| B2 | did not exhibit positive signals for binding to ASK1 | directly bound to ASK1 |  |  |
| B3 |  |  | grown in the histidine deficient medium | exhibit the β-galactosidase activity |
| B4 |  | co-precipitated with the GST-ASK1 fusion protein |  |  |

From patent US20040123344A1, “Novel gene encoding an f-box protein which regulates leaf longevity in arabidopsis thaliana and mutant gene thereof” (priority 2000, published 2004)
